# Data taken from the Human Domainome abundance scans (Beltran et al. 2025).
# ± gives the uncertainty stated by the source.
# B1: Telomeric repeat-binding factor 2, residues 489 to 542; numbered along this chain, Q15554 (parent)
# chain: KQKWTVEESEWVKAGVQKYGEGNWAAISKNYPFVNRTAVMIKDRWRTMKRLGMN
# Variants of: B1
# Assay: abundance fitness (aPCA) (normalised: wild type 0, dead -1); higher = more abundant; growth selection in yeast, the domain comes from the species named
# Settings: Homo sapiens
row,Variant,abundance fitness
1,T37K,-0.789 ± 0.12
2,T37Y,-0.967 ± 0.41
3,T37R,-0.999 ± 0.093
4,T37N,-0.614 ± 0.16
5,T37Q,-0.903 ± 0.26
6,T37P,-0.404 ± 0.12
7,T37F,-0.629 ± 0.15
8,T37I,-0.689 ± 0.17
9,T37V,-0.461 ± 0.085
10,T37L,-0.256 ± 0.054
11,T37C,-0.724 ± 0.14
12,T37D,-0.247 ± 0.082
13,T37G,-0.668 ± 0.063
14,T37M,-0.974 ± 0.27
15,W45A,-0.691 ± 0.06
16,W45E,-0.571 ± 0.047
17,W45C,-0.81 ± 0.13
18,W45F,-0.747 ± 0.2
19,W45I,-0.65 ± 0.074
20,W45G,-0.982 ± 0.12
21,M40Y,-0.869 ± 0.39
22,M40C,0.169 ± 0.095
23,M40T,-0.52 ± 0.058
24,M40L,-0.508 ± 0.057

row,Variant,abundance fitness
1,M40N,-0.53 ± 0.18
2,M40P,-0.935 ± 0.1
3,M40D,0.106 ± 0.057
4,M40H,-0.119 ± 0.23
5,M40K,-0.377 ± 0.13
6,M40W,0.066 ± 0.071
7,M40F,0.11 ± 0.12
8,M40A,-0.015 ± 0.058
9,M40R,-0.663 ± 0.07
10,M40G,-0.406 ± 0.061
11,M40E,0.17 ± 0.086
12,M40S,-0.051 ± 0.077
13,I41C,-0.692 ± 0.15
14,I41D,-0.673 ± 0.16
15,I41F,-0.616 ± 0.096
16,I41T,-0.786 ± 0.28
17,I41A,-1.02 ± 0.12
18,I41E,-0.975 ± 0.17
19,I41S,-1.13 ± 0.38
20,I41W,-1.01 ± 0.34
21,I41V,-0.392 ± 0.056
22,I41R,-1.16 ± 0.15
23,I41G,-1.06 ± 0.1
24,I41N,-0.945 ± 0.15

row,Variant,abundance fitness
1,P32F,-0.746 ± 0.045
2,P32I,-0.774 ± 0.069
3,P32Q,-0.501 ± 0.044
4,P32V,-0.747 ± 0.04
5,P32K,-0.316 ± 0.039
6,P32R,-0.4 ± 0.042
7,P32E,-0.611 ± 0.045
8,P32Y,-0.864 ± 0.068
9,P32G,-0.429 ± 0.037
10,P32S,-0.361 ± 0.037
11,P32T,-0.532 ± 0.042
12,P32M,-0.565 ± 0.04
13,P32H,-0.574 ± 0.043
14,P32N,-0.294 ± 0.052
15,P32L,-0.726 ± 0.037
16,P32A,-0.327 ± 0.038
17,P32C,-0.593 ± 0.053
18,I27P,-0.87 ± 0.41
19,I27T,-0.533 ± 0.28
20,I27A,-0.862 ± 0.24
21,I27K,-0.757 ± 0.09
22,I27W,-0.919 ± 0.24
23,I27E,-0.938 ± 0.26
24,I27G,-0.901 ± 0.11

row,Variant,abundance fitness
1,I27V,-0.545 ± 0.13
2,I27L,-0.457 ± 0.1
3,I27M,-0.561 ± 0.22
4,I27H,-0.235 ± 0.26
5,I27S,-1.12 ± 0.23
6,I27F,-0.606 ± 0.35
7,I27R,-0.788 ± 0.055
8,R36K,0.228 ± 0.098
9,R36I,-0.685 ± 0.33
10,R36V,-0.4 ± 0.051
11,R36Y,-0.614 ± 0.25
12,R36S,-0.654 ± 0.086
13,R36M,-0.693 ± 0.24
14,R36A,-0.367 ± 0.069
15,R36T,-0.853 ± 0.25
16,R36G,-0.816 ± 0.051
17,R36C,-0.495 ± 0.12
18,R36H,-0.649 ± 0.28
19,R36W,-0.95 ± 0.14
20,R36Q,-0.897 ± 0.28
21,N35Y,-0.375 ± 0.15
22,N35R,-0.317 ± 0.083
23,N35T,-0.476 ± 0.082
24,N35V,-0.643 ± 0.06

row,Variant,abundance fitness
1,N35S,-0.27 ± 0.041
2,N35Q,0.215 ± 0.12
3,N35W,-0.588 ± 0.13
4,N35F,-1.14 ± 0.26
5,N35I,-0.758 ± 0.14
6,N35K,-0.222 ± 0.21
7,N35C,-0.71 ± 0.18
8,N35H,-0.277 ± 0.35
9,N35E,-0.185 ± 0.11
10,N35M,-0.555 ± 0.12
11,N35G,-0.259 ± 0.057
12,N35P,-1.09 ± 0.34
13,N23V,-0.27 ± 0.092
14,N23W,-0.39 ± 0.26
15,N23Y,-0.539 ± 0.28
16,D43P,-0.942 ± 0.27
17,D43W,-0.502 ± 0.073
18,D43Y,-0.364 ± 0.12
19,D43K,0.011 ± 0.11
20,D43S,-0.204 ± 0.078
21,D43G,-0.672 ± 0.097
22,D43I,-0.866 ± 0.24
23,D43C,-0.449 ± 0.091
24,D43F,-0.68 ± 0.17

row,Variant,abundance fitness
1,D43N,-0.061 ± 0.1
2,D43M,-0.368 ± 0.083
3,D43E,-0.046 ± 0.056
4,D43Q,-0.07 ± 0.11
5,D43R,-0.072 ± 0.074
6,W24P,-0.89 ± 0.36
7,W24C,-0.982 ± 0.34
8,W24D,-0.72 ± 0.2
9,W24R,-1.15 ± 0.18
10,W24A,-0.932 ± 0.49
11,W24V,-1.08 ± 0.23
12,W24I,-0.291 ± 0.27
13,W24E,-0.585 ± 0.16
14,W24K,-0.788 ± 0.48
15,W24S,-0.226 ± 0.15
16,W24Q,-0.442 ± 0.34
17,W24L,-0.858 ± 0.18
18,W24G,-0.596 ± 0.14
19,W24T,-0.705 ± 0.21
20,W24F,-0.642 ± 0.23
21,A38D,-0.276 ± 0.08
22,A38S,-0.204 ± 0.054
23,A38C,-0.336 ± 0.1
24,A38Q,-0.15 ± 0.11

row,Variant,abundance fitness
1,A38H,-0.413 ± 0.19
2,A38G,-0.371 ± 0.044
3,A38E,-0.126 ± 0.092
4,A38T,0.188 ± 0.18
5,A38P,0.014 ± 0.054
6,A38F,-0.334 ± 0.16
7,A38R,-0.575 ± 0.075
8,A38W,0.013 ± 0.068
9,A38V,-0.123 ± 0.047
10,A38L,-0.372 ± 0.08
11,A38K,-0.297 ± 0.1
12,A26K,-0.005 ± 0.11
13,A26E,-0.18 ± 0.12
14,A26V,-0.025 ± 0.043
15,A26D,-0.266 ± 0.14
16,A26I,-0.177 ± 0.28
17,A26L,-0.022 ± 0.082
18,A26N,-0.656 ± 0.22
19,A26S,-0.068 ± 0.053
20,A26Y,-0.288 ± 0.15
21,A26C,0.047 ± 0.14
22,A26G,-0.792 ± 0.11
23,A26W,-0.545 ± 0.16
